# Measured values published in IntAct's records for PubMed 23169619.
# B1: Protein TIFY 7 (Arabidopsis thaliana (Mouse-ear cress)), Q8W4J8 (parent)
# chain: MERDFLGLSDKQYLSNNVKHEVNDDAVEERGLSTKAAREWGKSKVFATSSFMPSSDFQEAKAFPGAYQWGSVSAANVFRRCQFGGAFQNATPLLLGGSVPLPTHPSLVPRVASSGSSPQLTIFYGGTISVFNDISPDKAQAIMLCAGNGLKGETGDSKPVREAERMYGKQIHNTAATSSSSATHTDNFSRCRDTPVAATNAMSMIESFNAAPRNMIPSVPQARKASLARFLEKRKERLMSAMPYKKMLLDLSTGESSGMNYSSTSPT
# partner: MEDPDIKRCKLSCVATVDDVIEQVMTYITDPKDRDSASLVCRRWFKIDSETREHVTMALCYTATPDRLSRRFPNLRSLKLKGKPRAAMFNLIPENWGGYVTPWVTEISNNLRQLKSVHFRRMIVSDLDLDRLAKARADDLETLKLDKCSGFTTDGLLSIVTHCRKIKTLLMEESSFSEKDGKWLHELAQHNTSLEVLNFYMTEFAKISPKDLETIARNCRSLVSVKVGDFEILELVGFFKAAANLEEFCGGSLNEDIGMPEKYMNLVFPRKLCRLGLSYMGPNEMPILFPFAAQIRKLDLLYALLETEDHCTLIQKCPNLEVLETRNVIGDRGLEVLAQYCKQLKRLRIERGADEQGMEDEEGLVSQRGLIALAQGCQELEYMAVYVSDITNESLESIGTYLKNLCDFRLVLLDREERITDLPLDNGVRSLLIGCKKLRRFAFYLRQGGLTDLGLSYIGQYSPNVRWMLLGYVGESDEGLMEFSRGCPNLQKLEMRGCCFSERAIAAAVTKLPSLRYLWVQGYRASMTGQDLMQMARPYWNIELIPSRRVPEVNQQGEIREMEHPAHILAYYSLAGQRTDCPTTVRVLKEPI
# B2: Protein TIFY 7 (Arabidopsis thaliana (Mouse-ear cress)), Q8W4J8 (parent)
# chain: B1 chain
# Variants of: B1
# Conditions: with coi1_arath COI1, O04197
row,effect of a mutation on the interaction,Variant
1,disrupting interaction strength,MERDFLGLSDKQYLSNNVKHEVNDDAVEERGLSTKAAREWGKSKVFATSSFMPSSDFQEAKAFPGAYQWGSVSAANVFRRCQFGGAFQNATPLLLGGSVPLPTHPSLVPRVASSGSSPQLTIFYGGTISVFNDISPDKAQAIMLCAGNGLKGETGDSKPVREAERMYGKQIHNTAATSSSSATHTDNFSRCRDTPVAATNAMSMIESFNAAPRNMIPSVPQARKASLARFLEAAAERLMSAMPYKKMLLDLSTGESSGMNYSSTSPT [K233A;R234A;K235A]
2,disrupting interaction strength,MERDFLGLSDKQYLSNNVKHEVNDDAVEERGLSTKAAREWGKSKVFATSSFMPSSDFQEAKAFPGAYQWGSVSAANVFRRCQFGGAFQNATPLLLGGSVPLPTHPSLVPRVASSGSSPQLTIFYGGTISVFNDISPDKAQAIMLCAGNGLKGETGDSKPVREAERMYGKQIHNTAATSSSSATHTDNFSRCRDTPVAATNAMSMIESFNAAPRNMIPSVPQAAAASLARFLEKRKERLMSAMPYKKMLLDLSTGESSGMNYSSTSPT [R223A;K224A]
3,disrupting interaction strength,MERDFLGLSDKQYLSNNVKHEVNDDAVEERGLSTKAAREWGKSKVFATSSFMPSSDFQEAKAFPGAYQWGSVSAANVFRRCQFGGAFQNATPLLLGGSVPLPTHPSLVPRVASSGSSPQLTIFYGGTISVFNDISPDKAQAIMLCAGNGLKGETGDSKPVREAERMYGKQIHNTAATSSSSATHTDNFSRCRDTPVAATNAMSMIESFNAAPRNMIPSVPQARKASLARFLEKAKERLMSAMPYKKMLLDLSTGESSGMNYSSTSPT [R234A]
4,disrupting interaction strength,MERDFLGLSDKQYLSNNVKHEVNDDAVEERGLSTKAAREWGKSKVFATSSFMPSSDFQEAKAFPGAYQWGSVSAANVFRRCQFGGAFQNATPLLLGGSVPLPTHPSLVPRVASSGSSPQLTIFYGGTISVFNDISPDKAQAIMLCAGNGLKGETGDSKPVREAERMYGKQIHNTAATSSSSATHTDNFSRCRDTPVAATNAMSMIESFNAAPRNMIPSVPQARKASLARFLEAAKERLMSAMPYKKMLLDLSTGESSGMNYSSTSPT [K233A;R234A]

# Variants of: B2
# Conditions: with myc2_arath MYC2, Q39204
# Chain of myc2_arath MYC2, Q39204 (Q39204 whole entry): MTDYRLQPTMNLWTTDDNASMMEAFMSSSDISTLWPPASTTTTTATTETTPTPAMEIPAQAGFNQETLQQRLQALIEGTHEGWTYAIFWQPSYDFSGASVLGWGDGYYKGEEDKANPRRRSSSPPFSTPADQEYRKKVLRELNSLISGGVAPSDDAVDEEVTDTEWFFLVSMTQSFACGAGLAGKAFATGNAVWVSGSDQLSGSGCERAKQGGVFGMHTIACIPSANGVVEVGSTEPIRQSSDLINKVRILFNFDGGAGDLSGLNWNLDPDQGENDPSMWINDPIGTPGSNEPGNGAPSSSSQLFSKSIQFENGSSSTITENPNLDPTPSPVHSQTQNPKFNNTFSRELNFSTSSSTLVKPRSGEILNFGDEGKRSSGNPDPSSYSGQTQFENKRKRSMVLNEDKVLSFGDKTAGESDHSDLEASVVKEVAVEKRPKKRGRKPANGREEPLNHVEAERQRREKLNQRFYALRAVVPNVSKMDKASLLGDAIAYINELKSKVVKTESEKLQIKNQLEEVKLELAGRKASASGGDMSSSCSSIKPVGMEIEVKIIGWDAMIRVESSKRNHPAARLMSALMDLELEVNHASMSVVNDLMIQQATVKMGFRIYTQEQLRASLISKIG
row,effect of a mutation on the interaction,Variant
1,disrupting interaction strength,MERDFLGLSDKQYLSNNVKHEVNDDAVEERGLSTKAAREWGKSKVFATSSFMPSSDFQEAKAFPGAYQWGSVSAANVFRRCQFGGAFQNATPLLLGGSVPLPTHPSLVPRVASSGSSPQLTIFYGGTISVFNDISPDKAQAIMLCAGNGLKGETGDSKPVREAERMYGKQIHNTAATSSSSATHTDNFSRCRDTPVAATNAMSMIESFNAAPRNMIPSVPQARKASLARFLEAAKERLMSAMPYKKMLLDLSTGESSGMNYSSTSPT [K233A;R234A]
2,disrupting interaction strength,MERDFLGLSDKQYLSNNVKHEVNDDAVEERGLSTKAAREWGKSKVFATSSFMPSSDFQEAKAFPGAYQWGSVSAANVFRRCQFGGAFQNATPLLLGGSVPLPTHPSLVPRVASSGSSPQLTIFYGGTISVFNDISPDKAQAIMLCAGNGLKGETGDSKPVREAERMYGKQIHNTAATSSSSATHTDNFSRCRDTPVAATNAMSMIESFNAAPRNMIPSVPQARKASLARFLEKAKERLMSAMPYKKMLLDLSTGESSGMNYSSTSPT [R234A]
3,disrupting interaction strength,MERDFLGLSDKQYLSNNVKHEVNDDAVEERGLSTKAAREWGKSKVFATSSFMPSSDFQEAKAFPGAYQWGSVSAANVFRRCQFGGAFQNATPLLLGGSVPLPTHPSLVPRVASSGSSPQLTIFYGGTISVFNDISPDKAQAIMLCAGNGLKGETGDSKPVREAERMYGKQIHNTAATSSSSATHTDNFSRCRDTPVAATNAMSMIESFNAAPRNMIPSVPQARKASLARFLEAAAERLMSAMPYKKMLLDLSTGESSGMNYSSTSPT [K233A;R234A;K235A]
